# Laboratory results: US20150239968A1
# Legend:
# [1] = target: recombinant mature human GDF-15 protein (as expressed in Baculovirus-transfected insect cells) (human) (UniProt Q99988); assay: SPR (Biorad ProteOn XPR36, GLC chip), KD=koff/kon, GDF-15 from insect cells immobilized
# [2] = target: recombinant mature human GDF-15 protein derived from expression in E. coli (human) (UniProt Q99988); assay: SPR (Biorad ProteOn XPR36, GLC chip), GDF-15 from E. coli immobilized, antibody as analyte
# [3] = target: recombinant mature human GDF-15 protein (as expressed in Baculovirus-transfected insect cells) (human) (UniProt Q99988); assay: SPR (Biorad ProteOn XPR36, GLC chip), GDF-15 from insect cells immobilized, antibody as analyte, 1:1 Langmuir, 25° C.
# [4] = target: GDF-15 produced by the prostate cancer cell line LnCap (UniProt Q99988); assay: cell-based or functional assay
substance,measurement,setting,value
monoclonal anti-human GDF-15 mAb-B1-23 (antibody),Kd,[1],0.79 nM
same,deviation of rate constants against GDF-15 derived from insect cells,[2],45%
same,fold difference of affinity values against GDF-15 derived from insect cells,[2],< 2 fold
same,koff,[3],0.00043 s⁻¹
same,kon,[3],540000 M⁻¹ s⁻¹
same,proliferation of LnCap cells (Alamar Blue assay) after 72 hrs,[4],30%
